Results on two molecules are retold here after patent US20230312739A1 (BIOTHEUS, published 2023).

By EC50 (read off the curve) is commonly meant the concentration at which the effect is half-maximal. For orientation: EC50 means the concentration needed to bring the measured effect to its halfway point. The term Kd denotes the concentration at which binding is half-saturated. By koff is commonly meant a measure of how fast the partners let go of each other. As a reminder, the kon is the second-order rate constant of association.

Experiment [1] concerns the target CD73 on cynomolgus macaques CD3+CD8+ T cells (cynomolgus macaques). Nature of the experiment: flow cytometry on cynomolgus macaque PBMC, CD3+CD8+ T cells, donor 1300M. On the technique in general: In flow cytometry, cells or beads pass a laser one at a time.
Experiment [2] shares this target. Put plainly: flow cytometry on cynomolgus macaque PBMC, CD3+CD8+ T cells, donor 1132F.
The target of experiment [3] is T1, recombinant human CD73 protein (Baiying Bio) (human, UniProt P21589 27-549).
T1 construct: Bought protein; also called soluble recombinant CD73; soluble human CD73 protein
T1 sequence: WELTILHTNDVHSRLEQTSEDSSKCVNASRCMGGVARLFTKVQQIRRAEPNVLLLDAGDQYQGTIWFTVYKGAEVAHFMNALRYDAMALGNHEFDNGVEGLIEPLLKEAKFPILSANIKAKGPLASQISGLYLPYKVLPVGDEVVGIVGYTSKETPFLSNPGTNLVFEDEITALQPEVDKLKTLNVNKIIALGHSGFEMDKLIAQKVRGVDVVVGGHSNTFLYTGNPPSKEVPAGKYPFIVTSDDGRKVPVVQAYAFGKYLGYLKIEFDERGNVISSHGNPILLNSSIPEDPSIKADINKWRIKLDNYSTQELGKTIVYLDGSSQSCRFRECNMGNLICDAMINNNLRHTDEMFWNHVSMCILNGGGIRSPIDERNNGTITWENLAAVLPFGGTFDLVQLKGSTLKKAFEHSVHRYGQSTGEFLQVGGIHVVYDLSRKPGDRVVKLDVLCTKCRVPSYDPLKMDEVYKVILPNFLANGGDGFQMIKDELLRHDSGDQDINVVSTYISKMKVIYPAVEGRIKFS
Put plainly: ELISA, 1 ug/ml recombinant human CD73 coated, HRP-coupled anti-IgG Fc secondary antibody, OD450. The protocol: 1 μg/ml recombinant human CD73 protein (Baiying Bio, recombinant human CD73 protein) was coated on an ELISA plate in PBS for overnight at 4° C. The plate was washed 3 times with washing buffer (PBS, 0.05% Tween-20), and non-specific sites were blocked by adding 200 μl/well PBS+2% BSA. 100 μL of the anti-CD73 antibody in a dose range of gradient dilution was added to the ELISA plate coated with the antigen, and incubated at 37° C. for 1 h. The plate was washed 3 times in washing buffer, and HRP-coupled goat anti-human or goat anti-mouse IgG Fc fragment secondary antibody was added for 1 h at room temperature to detect the captured anti-CD73 antibody. […] The enzymatic reaction was stopped by adding 1M sulfuric acid solution, and the light absorption was measured at 450 nm. The graph was plotted with the absorbance value on the ordinate and the log value of antibody concentration on the abscissa, and the EC50 was calculated using GraphPad Prism software.
In general terms: ELISA stands for enzyme-linked immunosorbent assay.

In experiment [4] the target is T2, human CD73 on the cell surface (tumor cells endogenously expressing human CD73; CHOS-human CD73) (human, UniProt P21589 27-549).
T2 construct: The endogenous CD73 of the human tumor lines (MDA-MB-231, Calu6, SK-ME-S, H2030, SKLU1, BT549, A375, HCC44) is treated as the same protein
T2 sequence: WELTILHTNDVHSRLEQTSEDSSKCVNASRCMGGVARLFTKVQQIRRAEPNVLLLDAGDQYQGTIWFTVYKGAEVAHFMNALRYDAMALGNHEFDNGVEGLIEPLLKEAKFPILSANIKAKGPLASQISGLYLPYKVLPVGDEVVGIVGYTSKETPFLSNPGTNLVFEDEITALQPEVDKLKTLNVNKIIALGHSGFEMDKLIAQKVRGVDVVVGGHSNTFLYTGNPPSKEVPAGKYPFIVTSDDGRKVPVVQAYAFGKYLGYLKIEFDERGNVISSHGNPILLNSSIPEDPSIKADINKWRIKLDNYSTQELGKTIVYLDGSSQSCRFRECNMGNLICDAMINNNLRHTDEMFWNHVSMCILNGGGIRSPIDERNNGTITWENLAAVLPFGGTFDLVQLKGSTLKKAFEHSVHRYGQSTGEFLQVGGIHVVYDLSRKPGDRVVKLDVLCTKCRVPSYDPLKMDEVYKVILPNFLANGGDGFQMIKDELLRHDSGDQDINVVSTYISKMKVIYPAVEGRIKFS
Nature of the experiment: flow cytometry, MFI, A375 cells expressing human CD73. As to the method:
(§1) 500,000 CD73-expressing cells (see Example 2) were placed in 100 μL of FACS buffer (PBS+2% FBS)/well for later use in a round-bottom low adsorption 96-well plate. The antibody sample was subjected to serial 3-fold dilutions at 12 points by diluting ½ of the total volume (100 μL) in 200 μL of FACS buffer. 100 μL of the diluted antibody was added to each well of the cell plate, 100 μL of FACS buffer was added to the corresponding negative control well, and incubation was performed at 4° C. for 1 hour. […] After staining, the supernatant was removed by centrifugation, washing was performed twice with FACS buffer, and 100 μL of FACS buffer was added to each well to resuspend the cells, and then reading was performed on flow cytometry. The cells in the plate were measured using a flow cytometer (BD, model ACCURI C6 PLUS). During the measurement, the cells were first gated according to FCS and SSC, and then analyzed by the green fluorescence channel (FITC) corresponding to the secondary antibody and SSC. GraphPad was used for data analysis, wherein the abscissa indicated the logarithm of antibody concentration, the ordinate indicated mean fluorescence intensity, and the EC50 value of the anti-CD73 antibody was obtained by curve fitting.

The target in experiment [5] is T2, human CD73 on the cell surface (tumor …). Nature of the experiment: flow cytometry, MFI, MDA-MB-231 cells expressing human CD73. As to the method: as §1
For experiment [6] the target is unchanged. Put plainly: cell-based or functional assay.
The target in experiment [7] is T1, recombinant human CD73 protein (Baiying …). Put plainly: SPR, Biacore T200 at 25 C, antibody captured on Protein A chip, CD73 protein as analyte, 1:1 model. As to the method: The antibody was diluted with running buffer 1*HBS-EP+ to 1 μg/ml, and was captured onto the chip surface (Protein A chip, GE, Cat #29127556) at a flow rate of 10 μl/min for 30 s. Then, a series of concentrations of CD73 protein (Baiying Bio, recombinant human CD73 protein) were injected into antibody channel at a flow rate of 30 μl/min, for association of 180 s, followed by dissociation for 900 s. 10 mM pH 1.5 Gly-HCl was used for regeneration. The sensorgram data was fitted using a 1:1 dynamic binding model.

For the molecule Isotype control (IgG1-TM) (antibody), the figures for the MFI FC (fold change of mean fluorescence intensity) in experiment [1] and in experiment [2] were 1 fold and 1.2 fold, respectively.

B1: humanized antibody 7002-01 (antibody, human IgG1, kappa, V domains shown)
VH: QVQLQESGPGLVKPSQTLSLTCTVSGYSITSGYDWHWIRQHPGKGLEWMGYISYSGYTDYNPSLKSRITISHDTSKNQFSLKLSSVTAADTAVYYCTRGDHSYAMDYWGQGTLVTVSS
VL: AIQMTQSHSSLSASVGDRVTITCKASQAVGTAVAWYQQKPGKSPKLLIYWASSRHTGVPSRFSGSRSGTDFTLTISSLQPEDFATYFCQQYSSYPLTFGGGTKVEIKR
B1: the “EC50 (read off the curve)” value in experiment [3] was ~8 ng/mL. For the same molecule, the EC50 in experiment [4] amounted to 0.6 µg/mL. Moreover, a half-maximal effect in experiment [5] (EC50) was put at 0.99 µg/mL. In experiment [6], the “IC50 of antibody inhibiting enzymatic activity of CD73 on surface of A375 cells (AMP/ATP CellTiter-Glo)” value was 0.26 µg/mL and the “IC50 of antibody inhibiting enzymatic activity of CD73 on surface of MDA-MB-231 cells (AMP/ATP CellTiter-Glo)” value was found to be 1 µg/mL. In addition, in experiment [7], the Kd was found to be 0.21 nM, the off-rate constant (koff) came to 6.24e-05 s⁻¹ and the kon was 297000 M⁻¹ s⁻¹.
